Measurements taken from patent US20250152663A1, “COMPOSITION FOR PREVENTION OR TREATMENT OF DRY EYE DISEASE COMPRISING HAPLN1” (HAPLNSCIENCE INC., priority 2021, published 2025).

What was measured:
[1] = test system: mouse dry eye model; experiment: Corneal fluorescein score, low-humidity+scopolamine-induced dry eye disease model; assay type: in vivo, C57BL/6
Procedure: (§1) Corneal fluorescein score assay and tear volume assay were respectively performed on eyeballs of mice treated with the compositions of Preparation Examples 1, 2, and 3 prepared in Example 7 above by using a low-humidity+scopolamine-induced dry eye disease (DED) model.
When obtaining experimental animals, inspection and quarantines were carried out by referring the microbiological monitoring report of a test system provided by the supplier and observing the appearance of the experimental animals. Animals with no apparent abnormalities were brought into a vivarium and acclimated for 2 weeks in an animal room where tests were conducted. During the quarantine and acclimation period of 2 weeks, health condition and suitability for the experiment were evaluated, and then healthy animals were selected. By using only the animals with no abnormalities during the quarantine and acclimation period, dry eye disease was induced and the degree of corneal damage was evaluated by corneal fluorescein staining, and the test groups were classified by a Z-array method according to clinical scores. A dry eye disease test group consisted of eyeballs with a corneal fluorescein stain score of 7 to 15, and a sham group (normal) consisted of eyeballs not having a corneal fluorescein stains core of 5 or more. […]

[2] = test system: mouse dry eye model; experiment: Tear volume assay (Schirmer's test strip), low-humidity+scopolamine-induced dry eye disease model; assay type: in vivo, C57BL/6
Procedure: as §1
While the test animals were raised in a desiccating stress chamber with a relative humidity of 30% or less, scopolamine hydrobromide (S0929, Sigma-aldrich) prepared in a concentration of 2.5 mg/mL in saline (0.9% normal saline, JW Pharmaceuticals Corp.) was subcutaneously injected thereinto four times a day (QID: 09:30 AM, 12:00 PM, 15:00 PM, and 17:30 PM) for 10 days at a dose of 10 mL/kg to induce dry eye disease. The subcutaneous injection was performed at the back while moving positions to minimize damage caused by repeated administration. […]
• (1) General anesthesia of the mice was induced (10 mg/kg xylazine and 100 mg/kg ketamine, intraperitoneal injection). • (2) After 3 hours from administration of scopolamine hydrobromide in the morning (at 9:30 AM), measurement was conducted. • (3) The volume of tear was measured by using a Schirmer's test strip cut to ½ thickness. […] Then, one drop (5 μl) of physiological saline was applied to the eyeballs. • (4) A length of a wet portion of the strip was measured by a ruler. […]

[3] = test system: corneal epithelial cells; experiment: Detachment of corneal epithelial cells (H & E staining), mouse dry eye model; assay type: in vivo, C57BL/6; details: after 16 days of drug treatment, regardless of concentration
Procedure: On the 2nd day after 16 days of drug treatment, eyes were enucleated and paraffin blocked, and tissue was stained by hematoxylin and eosin (H & E) staining on a prepared slide (FIG. 9A). The number of detached corneal epithelial cells was measured and quantified (FIG. 9B).

[4] = test system: CCL-20 secreted by human corneal epithelial cells; experiment: CCL-20 ELISA under high osmotic pressure; assay type: cell-based; details: HCEC, 450 mOsM, 5, 10, 20, 50, and 100 ng/ml
Procedure: In addition, the activity of NFκB that is an important transcription factor in expression of the inflammatory factors was identified by Western blot analysis (FIG. 4B). Preparation of the experiment was performed under the same conditions of those of Cytokine array performed as described above and the ELISA was performed according to the manufacturer's instructions.

B1: hyaluronan and proteoglycan link protein 1 (HAPLN1) (protein, listed as Homo sapiens)
chain: MKSLLLLVLISICWADHLSDNYTLDHDRAIHIQAENGPHLLVEAEQAKVFSHRGGNVTLPCKFYRDPTAFGSGIHKIRIKWTKLTSDYLKEVDVFVSMGYHKKTYGGYQGRVFLKGGSDSDASLVITDLTLEDYGRYKCEVIEGLEDDTVVVALDLQGVVFPYFPRLGRYNLNFHEAQQACLDQDAVIASFDQLYDAWRGGLDWCNAGWLSDGSVQYPITKPREPCGGQNTVPGVRNYGFWDKDKSRYDVFCFTSNFNGRFYYLIHPTKLTYDEAVQACLNDGAQIAKVGQIFAAWKILGYDRCDAGWLADGSVRYPISRPRRRCSPTEAAVRFVGFPDKKHKLYGVYCFRAYN
CFS level compared with Cyclosporine A ([1]; after 11 days): reduced the CFS level more than Cyclosporine A
CFS level ([1]; eye drop 0.5, 5, 50 μg/ml, 5 μL b.i.d., regardless of the concentration): consistently decreased
tear volume compared with Cyclosporine A ([2]; after 11 days): increased the tear volume far more than Cyclosporine A
tear volume ([2]; eye drop 0.5, 5, 50 μg/ml, 5 μL b.i.d., regardless of the concentration, more than Cyclosporine A): consistently increased
number of damaged (detached) corneal epithelial cells [3]: decreased
expression levels of the inflammatory factor CCL20 (ELISA) [4]: relatively lower than those of the HAPLN1 protein-untreated groups
